Laboratory results as given in article PMC6182147.
Where two headings read alike, the source gives them in different places.

Key:
[1] = molecular target: Clp-GST (L. enzymogenes Clp purified as GST-fusion) (Lysobacter enzymogenes) (UniProt Q7WZ07); test: MST
[2] = molecular target: Clp-GST (L. enzymogenes Clp purified as GST-fusion) (Lysobacter enzymogenes) (UniProt Q7WZ07); test: MST; remark: listed apart in the source

Kd [1]: 7.18 nM | Kd [2]: 1.42 nM
Substance: LchP-PGE-MBP (cytoplasmic fragment of LchP, PAS+GGDEF+EAL domains, fused to maltose binding protein) (domain or fragment)
